Measurements as given in publication PMC6844113.

Substrate: Nc1ncnc2c1ncn2[C@@H]1O[C@H](COP(=O)(O)OP(=O)(O)OP(=O)(O)O)[C@@H](O)[C@H]1O
Experiment: purified protein
Type: biochemical, Homo sapiens
Details: Mg2+

B1: human DNA topoisomerase IIα (Homo sapiens) (protein)
chain: MEVSPLQPVNENMQVNKIKKNEDAKKRLSVERIYQKKTQLEHILLRPDTYIGSVELVTQQMWVYDEDVGINYREVTFVPGLYKIFDEILVNAADNKQRDPKMSCIRVTIDPENNLISIWNNGKGIPVVEHKVEKMYVPALIFGQLLTSSNYDDDEKKVTGGRNGYGAKLCNIFSTKFTVETASREYKKMFKQTWMDNMGRAGEMELKPFNGEDYTCITFQPDLSKFKMQSLDKDIVALMVRRAYDIAGSTKDVKVFLNGNKLPVKGFRSYVDMYLKDKLDETGNSLKVIHEQVNHRWEVCLTMSEKGFQQISFVNSIATSKGGRHVDYVADQIVTKLVDVVKKKNKGGVAVKAHQVKNHMWIFVNALIENPTFDSQTKENMTLQPKSFGSTCQLSEKFIKAAIGCGIVESILNWVKFKAQVQLNKKCSAVKHNRIKGIPKLDDANDAGGRNSTECTLILTEGDSAKTLAVSGLGVVGRDKYGVFPLRGKILNVREASHKQIMENAEINNIIKIVGLQYKKNYEDEDSLKTLRYGKIMIMTDQDQDGSHIKGLLINFIHHNWPSLLRHRFLEEFITPIVKVSKNKQEMAFYSLPEFEEWKSSTPNHKKWKVKYYKGLGTSTSKEAKEYFADMKRHRIQFKYSGPEDDAAISLAFSKKQIDDRKEWLTNFMEDRRQRKLLGLPEDYLYGQTTTYLTYNDFINKELILFSNSDNERSIPSMVDGLKPGQRKVLFTCFKRNDKREVKVAQLAGSVAEMSSYHHGEMSLMMTIINLAQNFVGSNNLNLLQPIGQFGTRLHGGKDSASPRYIFTMLSSLARLLFPPKDDHTLKFLYDDNQRVEPEWYIPIIPMVLINGAEGIGTGWSCKIPNFDVREIVNNIRRLMDGEEPLPMLPSYKNFKGTIEELAPNQYVISGEVAILNSTTIEISELPVRTWTQTYKEQVLEPMLNGTEKTPPLITDYREYHTDTTVKFVVKMTEEKLAEAERVGLHKVFKLQTSLTCNSMVLFDHVGCLKKYDTVLDILRDFFELRLKYYGLRKEWLLGMLGAESAKLNNQARFILEKIDGKIIIENKPKKELIKVLIQRGYDSDPVKAWKEAQQKVPDEEENEESDNEKETEKSDSVTDSGPTFNYLLDMPLWYLTKEKKDELCRLRNEKEQELDTLKRKSPSDLWKEDLATFIEELEAVEAKEKQDEQVGLPGKGGKAKGKKTQMAEVLPSPRGQRVIPRITIEMKAEAEKKNKKKIKNENTEGSPQEDGVELEGLKQRLEKKQKREPGTKTKKQTTLAFKPIKKGKKRNPWSDSESDRSSDESNFDVPPRETEPRRAATKTKFTMDLDSDEDFSDFDEKTDDEDFVPSDASPPKTKTSPKLSNKELKPQKSVVSDLEADDVKGSVPLSSSPPATHFPDETEITNPVPKKNVTVKKTAAKSQSSTSTTGAKKRAAPKGTKRDPALNSGVSQKPDPAKTKNRRKRKPSTSDDSDSNFEKIVSKAVTSKKSKGESDDFHMDFDSAVAPRAKSVRAKKPIKYLEESDEDDLF
Protein B1 has a Km of 220 ± 60 µM.
